Experiments:
[1] = biological target: T1, mouse CNPase catalytic domain (mouse, UniProt P16330); assay: SEC-SAXS
[2] = biological target: T1, mouse CNPase catalytic domain; assay: ITC
[3] = biological target: T2, full-length mouse CNPase (Mus musculus, UniProt P16330); assay: DSF thermal shift
[4] = biological target: T2, full-length mouse CNPase; assay: nanoDSF thermal shift
[5] = biological target: T3, Tom70-EGFP-CNPase-ALFAtag (Mus musculus (assumed)); assay: co-localisation with a target anchored to mitochondria
T3 chain: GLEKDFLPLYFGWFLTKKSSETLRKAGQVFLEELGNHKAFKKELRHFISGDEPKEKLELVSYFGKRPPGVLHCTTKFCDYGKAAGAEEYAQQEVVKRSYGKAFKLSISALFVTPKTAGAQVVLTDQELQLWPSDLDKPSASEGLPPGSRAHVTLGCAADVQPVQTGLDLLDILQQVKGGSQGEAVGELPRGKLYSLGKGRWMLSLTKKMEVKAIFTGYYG

[6] = biological target: T1, mouse CNPase catalytic domain; assay: SEC-SAXS; remark: listed apart in the source
[7] = biological target: T2, full-length mouse CNPase; assay: enzyme inhibition kinetics

T2 sequence (P16330 whole entry): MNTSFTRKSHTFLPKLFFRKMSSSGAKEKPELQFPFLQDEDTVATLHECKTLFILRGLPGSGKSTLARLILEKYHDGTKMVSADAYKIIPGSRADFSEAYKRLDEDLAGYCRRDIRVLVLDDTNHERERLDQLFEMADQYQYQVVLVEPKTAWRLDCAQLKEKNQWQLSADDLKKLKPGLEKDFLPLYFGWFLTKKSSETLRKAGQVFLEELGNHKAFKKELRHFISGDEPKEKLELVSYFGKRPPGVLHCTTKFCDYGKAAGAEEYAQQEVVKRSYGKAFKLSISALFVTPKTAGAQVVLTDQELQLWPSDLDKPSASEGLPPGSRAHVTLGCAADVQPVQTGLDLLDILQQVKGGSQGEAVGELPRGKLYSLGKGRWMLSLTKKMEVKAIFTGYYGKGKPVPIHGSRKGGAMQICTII

Row | Binder | stoichiometry N [1] | Kd [2] [nM] | dH [2] [kcal/mol] | stoichiometry N [2] | ΔTm of CNPase [3] [°C] | ΔTm of CNPase [4] [°C] | binding result [5] | stoichiometry N [6] | Ki [7] [nM]
1 | anti-CNPase nanobody NbCNP 7E (VHH) VHH: EVQLEESGGGWVHPGGSLRLSCAASGNVFGVNTMAWYRQAPGKQREQRELVASITDYGTTEYADSVKGRFTISGDNAKATVYLQMNSLKPEDTAVYYCNMDLTVMTATSSLYAYDYWGQGTQVTVSS | 1 | 83.3 | -14.2 | 0.863 | 2.1 |  |  |  | 
2 | anti-CNPase nanobody NbCNP 8C (VHH) VHH: EVQLEESGGGLVQAGGSLTLSCAASGFTFDDYAMGWYRQAPGKERVGVSCISRTDGYTYYLDSVKGRFTISTDHAKHTVYLQMNNLKPDDTGLYYCAADADPEYGSRCPDPYYGMDYWGKGILVTVSS | 1 | 16.6 | -7.07 | 0.914 | 9.2 |  |  |  | 
3 | anti-CNPase nanobody NbCNP 8D (VHH) VHH: EVQLEESGGGLVQPGGSLRLSCAASGFTFSSYVMSWVRQAPGKGLEWVSDINSGGSRTYYTDSVKGRFTISRDNAKNTLYLQMNSLKPEDTAVYYCARDSLLSTRYLHTSERGQGTQVTVSS |  |  |  |  | 18 | 17.7 |  |  | 
4 | iNbCNP 8D fused to mRuby3 (VHH) VHH: EVQLEESGGGLVQPGGSLRLSCAASGFTFSSYVMSWVRQAPGKGLEWVSDINSGGSRTYYTDSVKGRFTISRDNAKNTLYLQMNSLKPEDTAVYYCARDSLLSTRYLHTSERGQGTQVTVSS |  |  |  |  |  |  | binds |  | 
5 | anti-CNPase nanobody NbCNP 10E (VHH) VHH: EVQLEESGGGLVQPGGSLRLSCAVSGITLDDFGIGWFRQAPGKEREGVACISPGYEHIYYADSAKGRFTISRDNAKNTVYLQMNNLKPWDTGVYYCAADNDLPDRLWGGSDWSDPSPYDYWGQGTQVTVSS |  | 9.8 | -12.1 | 0.804 | 4.2 |  |  | 2 molecules of CNPase per 10E molecule | 0.604 ± 0.0507
6 | iNbCNP 10E fused to mRuby3 (VHH) VHH: EVQLEESGGGLVQPGGSLRLSCAVSGITLDDFGIGWFRQAPGKEREGVACISPGYEHIYYADSAKGRFTISRDNAKNTVYLQMNNLKPWDTGVYYCAADNDLPDRLWGGSDWSDPSPYDYWGQGTQVTVSS |  |  |  |  |  |  | binds |  | 
7 | MaBP-10E (His6-maltose binding protein fusion of NbCNP 10E) (VHH) VHH: EVQLEESGGGLVQPGGSLRLSCAVSGITLDDFGIGWFRQAPGKEREGVACISPGYEHIYYADSAKGRFTISRDNAKNTVYLQMNNLKPWDTGVYYCAADNDLPDRLWGGSDWSDPSPYDYWGQGTQVTVSS |  | 13.4 | -18.1 | 0.836 |  |  |  |  | 

Source: paper PMC11142274 (bioRxiv, 2024)
